T1: rat VEGF164 (rat, UniProt P16612)
T1 chain: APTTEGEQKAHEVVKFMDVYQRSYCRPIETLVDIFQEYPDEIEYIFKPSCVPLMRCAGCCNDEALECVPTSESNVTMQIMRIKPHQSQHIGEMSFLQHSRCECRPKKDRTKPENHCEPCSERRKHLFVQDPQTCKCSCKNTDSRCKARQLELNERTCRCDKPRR

T2: human VEGF165 (human, UniProt P15692)
T2 chain: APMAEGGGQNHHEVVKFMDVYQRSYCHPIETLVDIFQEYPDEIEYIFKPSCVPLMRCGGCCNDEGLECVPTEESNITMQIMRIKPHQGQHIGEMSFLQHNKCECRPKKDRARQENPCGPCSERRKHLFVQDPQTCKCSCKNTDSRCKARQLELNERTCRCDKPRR

T3: mouse VEGF164 (mouse, UniProt Q00731)
T3 chain: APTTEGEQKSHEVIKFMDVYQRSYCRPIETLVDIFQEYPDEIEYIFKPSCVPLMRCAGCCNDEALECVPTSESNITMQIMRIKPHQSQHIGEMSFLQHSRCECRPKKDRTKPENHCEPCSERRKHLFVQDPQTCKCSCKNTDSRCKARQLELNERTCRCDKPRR

T4: human VEGF110 (human, UniProt P15692)
T4 chain: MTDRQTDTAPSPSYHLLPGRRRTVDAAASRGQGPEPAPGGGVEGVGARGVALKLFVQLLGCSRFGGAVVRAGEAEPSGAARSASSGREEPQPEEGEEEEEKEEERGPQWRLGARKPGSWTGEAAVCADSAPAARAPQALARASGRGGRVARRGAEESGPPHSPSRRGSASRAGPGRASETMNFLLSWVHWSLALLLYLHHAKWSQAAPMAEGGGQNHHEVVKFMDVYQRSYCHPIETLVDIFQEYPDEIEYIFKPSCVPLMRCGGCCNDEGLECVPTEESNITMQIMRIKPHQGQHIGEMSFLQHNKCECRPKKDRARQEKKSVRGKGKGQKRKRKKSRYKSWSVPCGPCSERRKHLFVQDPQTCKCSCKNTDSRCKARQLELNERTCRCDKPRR

T5: human VEGF121 (human, UniProt P15692)
T5 chain: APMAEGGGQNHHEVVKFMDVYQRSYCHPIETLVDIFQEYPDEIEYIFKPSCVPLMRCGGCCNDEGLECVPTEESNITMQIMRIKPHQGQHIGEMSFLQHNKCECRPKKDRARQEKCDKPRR

T6: human PlGF (human, UniProt P49763)
T6 chain: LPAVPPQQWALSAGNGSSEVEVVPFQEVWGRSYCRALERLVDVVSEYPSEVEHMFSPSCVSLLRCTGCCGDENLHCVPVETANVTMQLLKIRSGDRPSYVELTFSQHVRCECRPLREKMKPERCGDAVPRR


What was measured:
rat VEGF164 [1] = molecular target: T1, rat VEGF164; test: SPR, pH 5
human VEGF165 [2] = molecular target: T2, human VEGF165; test: SPR, pH 5
mouse VEGF164 [3] = molecular target: T3, mouse VEGF164; test: SPR, pH 5
mouse VEGF164 [4] = molecular target: T3, mouse VEGF164; test: SPR, pH 7.4
rat VEGF164 [5] = molecular target: T1, rat VEGF164; test: SPR, pH 7.4
human VEGF165 [6] = molecular target: T2, human VEGF165; test: SPR, pH 5
human VEGF165 [7] = molecular target: T2, human VEGF165; test: SPR, pH 7.4
human VEGF165 [8] = molecular target: T2, human VEGF165; test: SPR, pH 5
human VEGF165 [9] = molecular target: T2, human VEGF165; test: SPR, pH 7.4
human VEGF110 = molecular target: T4, human VEGF110; test: SPR, pH 5
mouse VEGF164 [10] = molecular target: T3, mouse VEGF164; test: SPR, pH 5
human VEGF121 = molecular target: T5, human VEGF121; test: SPR, pH 5
rat VEGF164 [11] = molecular target: T1, rat VEGF164; test: SPR, pH 5
human VEGF165 [12] = molecular target: T2, human VEGF165; test: competition, VEGFR2 ELISA
human PlGF = molecular target: T6, human PlGF; test: SPR, pH 5
human VEGF165 [13] = molecular target: T2, human VEGF165; test: SPR, pH 7.4

Kd (rat VEGF164 [1])	Kd (human VEGF165 [2])	Kd (mouse VEGF164 [3])	Kd (human VEGF165 [8])	Binder	also measured
0.845 nM	0.576 nM	0.608 nM	–	578minmax FW1.4_DHP (961) (antibody, V domains shown) VH: EVQLVESGGGSVQPGGSLRLSCTASGFSLTDYYYMTWVRQAPGKGLEWVGFIDPDDDPYYATWAKGRFTISRDTSKNTVYLQMNSLRAEDTATYYCAGGDHNSGWGLDIWGQGTTVTVSS VL: EIVMTQSPSTLSASVGDRVIITCQASEIIHSWLAWYQQKPGKAPKLLIYLASTLASGVPSRFSGSGSGAEFTLTISSLQPDDFATYYCQNVYLASTNGANFGQGTKLTVLG	–
–	–	–	1.18 nM	610-max (antibody, V domains shown) VH: EVQLVESGGGLVQPGGSLRLSCTASGIDFSGAYYMGWVRQAPGKGLEWVGYIDYDGDRYYASWAKGRFTISKDTSKNTVYLQMNSLRAEDTAVYYCARSDYSSGWGTDIWGQGTLVTVSS VL: EIVMTQSPSTLSASVGDRVIITCQASQSISSWLSWYQQKPGKAPKLLIYQASTLASGVPSRFSGSGSGTEFTLTISSLQPDDFATYYCQNNYGFRSYGGAFGQGTKLTVLG	koff (human VEGF165 [9]): 35.7 s⁻¹
–	–	–	10.6 nM	610-min (antibody, V domains shown) VH: EVQLVESGGGLVQPGGSLRLSCAASGIDFSGAYYMGWVRQAPGKGLEWVSYIDYDGDRYYASWAKGRFTISRDNSKNTLYLQMNSLRAEDTAVYYCAKSDYSSGWGTDIWGQGTLVTVSS VL: EIVMTQSPSTLSASVGDRVIITCQASQSISSWLSWYQQKPGKAPKLLIYQASTLASGVPSRFSGSGSGAEFTLTISSLQPDDFATYYCQNNYGFRSYGGAFGQGTKLTVLG	binding result (human VEGF165 [13]): no binding

The next lines start with the binder.

Binder	Kd (rat VEGF164 [1])	Kd (human VEGF165 [2])	Kd (mouse VEGF164 [3])	Kd (human VEGF165 [8])	also measured
578minmax (903) (antibody, V domains shown) VH: EVQLVESGGGLVQPGGSLRLSCTASGFSLTDYYYMTWVRQAPGKGLEWVGFIDPDDDPYYATWAKGRFTISRDTSKNTVYLQMNSLRAEDTAVYYCAGGDHNSGWGLDIWGQGTLVTVSS VL: EIVMTQSPSTLSASVGDRVIITCQASEIIHSWLAWYQQKPGKAPKLLIYLASTLASGVPSRFSGSGSGAEFTLTISSLQPDDFATYYCQNVYLASTNGANFGQGTKLTVLG	0.748 nM	0.625 nM	0.567 nM	–	Kd (mouse VEGF164 [4]): 0.0273 nM; Kd (rat VEGF164 [5]): 0.0219 nM
578min_max T84N_V89L_DHP (1017) (antibody, V domains shown) VH: EVQLVESGGGSVQPGGSLRLSCTASGFSLTDYYYMTWVRQAPGKGLEWVGFIDPDDDPYYATWAKGRFTISRDNSKNTLYLQMNSLRAEDTATYYCAGGDHNSGWGLDIWGQGTTVTVSS VL: EIVMTQSPSTLSASVGDRVIITCQASEIIHSWLAWYQQKPGKAPKLLIYLASTLASGVPSRFSGSGSGAEFTLTISSLQPDDFATYYCQNVYLASTNGANFGQGTKLTVLG	1.82 nM	–	1.46 nM	–	–
578min_max T84N_V89L (1008) (antibody, V domains shown) VH: EVQLVESGGGLVQPGGSLRLSCTASGFSLTDYYYMTWVRQAPGKGLEWVGFIDPDDDPYYATWAKGRFTISRDNSKNTLYLQMNSLRAEDTAVYYCAGGDHNSGWGLDIWGQGTLVTVSS VL: EIVMTQSPSTLSASVGDRVIITCQASEIIHSWLAWYQQKPGKAPKLLIYLASTLASGVPSRFSGSGSGAEFTLTISSLQPDDFATYYCQNVYLASTNGANFGQGTKLTVLG	1.89 nM	1.59 nM	1.53 nM	–	–
435-min (antibody, V domains shown) VH: EVQLVESGGGLVQPGGSLRLSCAASGFSLNTNYWMCWVRQAPGKGLEWVSCMYTGSYNRAYYASWAKGRFTISRDNSKNTLYLQMNSLRAEDTAVYYCAKGSNWYSDLWGQGTLVTVSS VL: EIVMTQSPSTLSASVGDRVIITCQASQSIGSSLAWYQQKPGKAPKLLIYTAANLASGVPSRFSGSGSGAEFTLTISSLQPDDFATYYCQNFATSDTVTFGQGTKLTVLG	–	–	–	–	binding result (human VEGF165 [6]): no binding; Kd (human VEGF165 [7]): 28.9 nM
375-min (antibody, V domains shown) VH: EVQLVESGGGLVQPGGSLRLSCAASGFSFTTTDYMCWVRQAPGKGLEWVSCILAGDGSTYYANWAKGRFTISRDNSKNTLYLQMNSLRAEDTAVYYCAKSDPASSWSFALWGQGTLVTVSS VL: EIVMTQSPSTLSASVGDRVIITCQASENINIWLSWYQQKPGKAPKLLIYQASKLASGVPSRFSGSGSGAEFTLTISSLQPDDFATYYCQNNYSYNRYGAPFGQGTKLTVLG	–	–	–	5.41 nM	koff (human VEGF165 [9]): 3.86 s⁻¹
511-max (antibody, V domains shown) VH: EVQLVESGGGLVQPGGSLRLSCTVSGFSLNTYYMNWVRQAPGKGLEWVGIIAPDDTTYYASWAKSRSTISRDTSKNTVYLQMNSLRAEDTAVYYCARSGDTTAWGADIWGQGTLVTVSS VL: EIVMTQSPSTLSASVGDRVIITCQASQSINIWLSWYQQKPGKAPKLLIYRASTLASGVPSRFSGSGSGTEFTLTISSLQPDDFATYYCQANYAYSAGYGAAFGQGTKLTVLG	–	–	–	0.0667 nM	Kd (human VEGF110): 0.197 nM; Kd (mouse VEGF164 [10]): 0.0613 nM; Kd (human VEGF121): 0.214 nM; Kd (rat VEGF164 [11]): 0.106 nM; EC50 (human VEGF165 [12]): 0.822 nM; Kd (human VEGF165 [7]): 0.0856 nM; binding result (human PlGF): no binding

Source: patent publication US10590193 (dated 2020)
